Source: patent publication US20230321261A1, “AXL-SPECIFIC ANTIBODY-DRUG CONJUGATES FOR CANCER TREATMENT” (GENMAB A/S, priority 2016, published 2023)

What was measured:
[1] = target: T1, full length human AXL (Homo sapiens, UniProt P30530); experiment: Flow cytometry binding to transfected HEK293T cells; settings: at least 3 experiments
T1 construct: expression constructs for full length human AXL; expressed in transfected cells; host or cells: HEK293T
Method: HEK293T cells were transiently transfected with expression constructs for full length human AXL, human AXL with a cynomolgus monkey extracellular domain (ECD) or human AXL with a mouse ECD (see Example 1). Binding of HuMab-AXL antibodies to these cells was evaluated by flow cytometry. Transfected HEK293 cells were incubated with serial dilutions of AXL-antibodies (final concentration range 0.0024-10 µg/mL) for 30 minutes at 4° C. […] Next, cells were washed twice in PBS/0.1% BSA/0.02% azide, resuspended in 120 µL PBS/0.1% BSA/0.02% azide and analyzed on a FACS Cantoll (BD Biosciences).
(§1) Binding curves were analyzed using non-linear regression (sigmoidal dose-response with variable slope) using GraphPad Prism V5.04 software (GraphPad Software, San Diego, CA, USA).

[2] = target: T2, human AXL with a cynomolgus monkey extracellular domain (ECD) (Homo sapiens, UniProt P30530, P441T/S191N/S285L/T105A/T112A/T125N/T443A); experiment: as above; settings: at least 3 experiments
T2 construct: aa 1-447); human AXL transmembrane and intracellular part (the remainder of human AXL after the ECD; expressed in transfected cells; host or cells: HEK293T

[3] = target: T3, AXL on A431 cells (Homo sapiens, UniProt P30530); experiment: Antibody binding to A431 cells with or without Gas6 pre-incubation; settings: for Antibody binding to A431 cells: EC50 in presence of Gas6 (µg/mL) mean (s.d.) / Antibody binding to A431 cells: Maximal binding in presence of Gas6 (% of binding in absence of Gas6) mean (s.d.): pre-incubation with 10 µg/mL Gas6; for Antibody binding to A431 cells: EC50 w/o Gas6 (µg/mL) mean (s.d.): without Gas6 pre-incubation
T3 construct: AXL-positive A431 cells were incubated; endogenous in cells; host or cells: A431

[4] = target: T4, Gas6 binding to AXL on A431 cells (Homo sapiens, UniProt P30530); experiment: Gas6 binding to A431 cells pre-incubated with AXL antibodies; settings: pre-incubation with 10 µg/mL antibody; control antibody b12
T4 construct: endogenous in cells; host or cells: A431
Method: Alternatively, A431 cells were pre-incubated with 10 µg/mL AXL antibodies (15 minutes, 4° C.) to assess if the AXL ligand Gas6 could still bind in presence of AXL antibodies. […] After washing three times in PBS/0.1% BSA/0.02% azide, cells were incubated with mouse anti-Gas6 IgG2a (R&D Systems; cat no. MAB885) at 4° C. for 30 min. After washing three times in PBS/0.1% BSA/0.02% azide, cells were incubated with FITC-labelled goat anti-mouse IgG (Dako, Heverlee, Belgium; cat no. F049702) at 4° C. for 30 min in the dark. Next, cells were washed twice in PBS/0.1% BSA/0.02% azide, resuspended in 120 µL PBS/0.1% BSA/0.02% azide and analyzed on a FACS Cantoll (BD Biosciences).
as §1
Therefore, binding of Gas6 to A431 cells that had been pre-incubated with 10 µg/mL AXL antibodies was tested as described in Example 2.

[5] = target: T5, AXLECDHis (extracellular domain of human AXL) (Homo sapiens, UniProt P30530); experiment: Binding affinity by Bio-Layer Interferometry (ForteBio OctetRED384); settings: 1:1 model, 30° C.
T5 construct: the extracellular domain (ECD) of human AXL (aa 1-447) with a C-terminal His tag (AXLECDHis); His tag (C); made in house; host or cells: HEK-293F

[6] = target: T6, human-mouse chimeric AXL mutants (Homo sapiens, UniProt P30530, A273L/A287V/A310S/E275K/E281D/G297E/H300L/L233V/M269V/N230H/P276S/P329T/Q227R/Q272W/R229H/S285L/S298K/S319P/T259N/T312S/V309I); experiment: AXL domain specificity using human-mouse AXL chimeric molecules (flow cytometry); type: binding; settings: 1 µg/mL antibody
T6 construct: constructs for expression of various full-length AXL variants were generated; expressed in transfected cells; host or cells: HEK293F

[7] = tested on: LCLC-103H xenograft tumors; experiment: LCLC-103H xenograft model; type: in vivo, SCID mice; settings: 3 mg/kg (Example 13, FIG. 14A)
Method: 5 × 10^6 LCLC-103H (large cell lung carcinoma) tumor cells (obtained from Leibniz-Institut DSMZ-Deutsche Sammlung von Mikroorganismen und Zellkulturen GmbH (DSMZ)) in 200 µL PBS were injected subcutaneously in the right flank of female SCID mice. Starting 14-21 days after tumor cell inoculation, when the average tumor size was >100-200 mm^3 and distinct tumor growth was observed, a single injection with 1 mg/kg (20 µg/mouse) IgG1-AXL-vcMMAE antibodies (as described in Supplementary Example 1) or control (unconjugated IgG1-b12) was given intraperitoneally (100 µL/mouse). Tumor volume was determined at least two times per week. Tumor volumes (mm^3) were calculated from caliper (PLEXX) measurements as: 0.52 × (length) × (width)^2.
(§2) Tumor induction was performed by subcutaneous injection of 5 × 10^6 A431 or LCLC-103H tumor cells (both obtained from Leibniz-Institut - Deutsche Sammlung von Mikroorganismen und Zellkulturen GmbH (DSMZ)) in 200 µL PBS in the right flank of female SCID mice. Treatment was started 14-21 days after tumor cell inoculation, when the average tumor size was >100-200 mm^3 and distinct tumor growth was observed. Mice received a single injection or a total of 4 biweekly intraperitoneal injections with IgG1-AXL-vcMMAE ADCs or control antibody (unconjugated IgG1-b12), as indicated. Tumor volume was determined at least two times per week. Tumor volumes (mm^3) were calculated from caliper (PLEXX) measurements as: 0.52 × (length) × (width)^2.

[8] = tested on: A431 tumors; experiment: A431 xenograft model (high Gas6); type: in vivo, SCID mice; settings: 3 mg/kg
Method: as §2

[9] = target: T7, human AXL transiently expressed by HEK-293F cells (Homo sapiens, UniProt P30530); experiment: Homogeneous antigen specific screening assay (FMAT); type: binding
T7 construct: TH1021-AXL (HEK-293F cells transiently expressing full length human AXL; produced as described above); expressed in transfected cells; host or cells: HEK-293F

B1: IgG1-AXL-183: AXL-specific human IgG1,κ antibody, VH SEQ ID NO:16, VL SEQ ID NO:18, FN1 domain binding (antibody, listed as Homo sapiens, V domains shown)
VH: QVQLQQWGAGLLKPSETLSLTCAVYGGSFSGYYWSWIRQPPGKGLEWIGEINQSGSTNYNPSLKSRVTISVDTSKNQFSLKLSSVTAADTSVYYCASGNWDHFFDYWGQGTLVTVSS
VL: DIQMTQSPSSVSASVGDRVTITCRASQGISSWLAWYQHKPGKAPKLLIYATSSLQSGVTSRFSGSGSGTDFTLTISSLQPEDFATYYCQQAKSFPWTFGQGTKVEIK
Binding EC50 (µg/mL) human AXL Average (s.d.) [1]: 0.526 (0.177) µg/mL | Binding EC50 (µg/mL) cynomolgus AXL Average (s.d.) [2]: 0.309 (0.086) µg/mL | Antibody binding to A431 cells: EC50 in presence of Gas6 (µg/mL) mean (s.d.) [3]: 1.19 (1.11) µg/mL | Antibody binding to A431 cells: Maximal binding in presence of Gas6 (% of binding in absence of Gas6) mean (s.d.) [3]: 90 (19) % | Antibody binding to A431 cells: EC50 w/o Gas6 (µg/mL) mean (s.d.) [3]: 0.69 (0.72) µg/mL | Gas6 binding to A431 cells: Maximal binding in presence of AXL antibodies (% of binding in presence of control antibody) mean (s.d.) [4]: 115 (8) % | Binding affinity (OCTET) Kdis [5]: 0.00042 s⁻¹ | binding to hsAXL-mmFN1 [6]: reduced binding

B2: IgG1-AXL-183-N52Q: point mutant of IgG1-AXL-183, VH SEQ ID NO:17, VL SEQ ID NO:18 (antibody, listed as Homo sapiens, V domains shown)
VH: QVQLQQWGAGLLKPSETLSLTCAVYGGSFSGYYWSWIRQPPGKGLEWIGEIQQSGSTNYNPSLKSRVTISVDTSKNQFSLKLSSVTAADTSVYYCASGNWDHFFDYWGQGTLVTVSS
VL: DIQMTQSPSSVSASVGDRVTITCRASQGISSWLAWYQHKPGKAPKLLIYATSSLQSGVTSRFSGSGSGTDFTLTISSLQPEDFATYYCQQAKSFPWTFGQGTKVEIK
Binding EC50 (µg/mL) human AXL Average (s.d.) [1]: 0.350 (0.206) µg/mL | Binding EC50 (µg/mL) cynomolgus AXL Average (s.d.) [2]: 0.324 (0.121) µg/mL | Binding affinity (OCTET) Kdis [5]: 0.001 s⁻¹ | Binding affinity (OCTET) Kon [5]: 42000 M⁻¹ s⁻¹

B3: IgG1-AXL-183-vcMMAE (conjugate)
VH: QVQLQQWGAGLLKPSETLSLTCAVYGGSFSGYYWSWIRQPPGKGLEWIGEINQSGSTNYNPSLKSRVTISVDTSKNQFSLKLSSVTAADTSVYYCASGNWDHFFDYWGQGTLVTVSS
VL: DIQMTQSPSSVSASVGDRVTITCRASQGISSWLAWYQHKPGKAPKLLIYATSSLQSGVTSRFSGSGSGTDFTLTISSLQPEDFATYYCQQAKSFPWTFGQGTKVEIK
anti-tumor activity in the LCLC-103H xenograft model [7]: tumor regression | anti-tumor activity in the A431 xenograft model [8]: growth inhibition

B4: IgG1-AXL-511: AXL-specific human IgG1,κ antibody, VH SEQ ID NO:136, VL SEQ ID NO:140, Ig2 domain binding (antibody, listed as Homo sapiens, V domains shown)
VH: EVQLLESGGGLVQPGGSLRLSCAASGFTFSSYAMNWVRQAPGKGLEWVSGISGSGGHTYHADSVKGRFTISRDNSKNTLYLQMNSLRAEDTAVYYCAKDRYDILTGYYNLLDYWGQGTLVTVSS
VL: DIQMTQSPSSLSASVGDRVTITCRASQGISSWLAWYQQKPEEAPKSLIYAASSLQSGVPSRFSGSGSGTDFTLTISSLQPEDFATYYCQQYNSYPLTFGGGAKVEIK
Antibody binding to A431 cells: EC50 in presence of Gas6 (µg/mL) mean (s.d.) [3]: 0.30 (0.31) µg/mL | Antibody binding to A431 cells: Maximal binding in presence of Gas6 (% of binding in absence of Gas6) mean (s.d.) [3]: 93 (15) % | Antibody binding to A431 cells: EC50 w/o Gas6 (µg/mL) mean (s.d.) [3]: 0.12 (0.11) µg/mL | Gas6 binding to A431 cells: Maximal binding in presence of AXL antibodies (% of binding in presence of control antibody) mean (s.d.) [4]: 113 (6) % | Binding affinity (OCTET) Kdis [5]: 0.0039 s⁻¹ | Binding affinity (OCTET) Kon [5]: 170000 M⁻¹ s⁻¹

B5: IgG1-AXL-187: AXL-specific human IgG1,κ antibody, VH SEQ ID NO:19, VL SEQ ID NO:20 (antibody, listed as Homo sapiens, V domains shown)
VH: QVPLQQWGAGLLKPSETLSLTCAVYGGSFSGYHWSWIRQPPGKGLEWIGEISHSGRTNYNPSLKSRVTISIDTSKNQFSLKLSSVTAADTAVYYCASFITMIRGTIITHFDYWGQGTLVTVSS
VL: DIQMTQSPSSLSASVGDRVTITCRASQGISSWLAWYQQKPEKAPKSLIYAASSLQSGVPSRFSGSGSGTDFTLTISSLQPEDFATYYCQQYHSYPYTFGQGTKLEIK
Maximal binding (Arbitrary units) [9]: 2563 Arbitrary units

B6: IgG1-AXL-726-vcMMAE (conjugate)
VH: QVQLQQWGAGLLKPSETLSLTCAIDGGSFSGYYWSWIRQPPGKGLEWIGEISHSGRTNYNPSLKSRVTISIDTSKNQFSLKLSSVAAADTAVYYCARFITMIRGAIITHFDYWGQGALVTVSS
VL: DIQMTQSPSSLSASVGDRVTITCRASQGISSWLAWYQQKPEKAPKSLIYAASSLQSGVPSRFSGSGSGTDFTLTISSLQPEDFATYYCQQYHSYPYTFGQGTKLEIK
anti-tumor activity in the LCLC-103H xenograft model [7]: tumor regression | anti-tumor activity in the A431 xenograft model [8]: growth inhibition

B7: IgG1-AXL-140: AXL-specific human IgG1,κ antibody, VH SEQ ID NO:3, VL SEQ ID NO:4 (antibody, listed as Homo sapiens, V domains shown)
VH: EVQLLESGGGLVQPGGSLRLSCAASGFTFSSYAMTWVRQAPGKGLEWVSAISISGASTFYADSVKGRFTISRDNSKNTLSLQMNSLRAEDTAVYFCRGYSGYVYDAFDIWGQGTMVTVSS
VL: DIQMTQSPSSLSASVGDRVTITCRASQGISNWLAWYQQKPEKAPKSLIYAASSLQSGVPSRFSGSGSGTDFTLTISSLQPEDFATYYCQQYNSYPLTFGGGTKVEIK
Maximal binding (Arbitrary units) [9]: 2889 Arbitrary units
